Target: Hsp90alpha (UniProt P07900 P07900:2-732)
Assay: filter; nitrocellulose double-filter binding, printed as binding constant
Details: label: 5' biotin-TEG, radiolabel
Procedure: The protein-bound ASOs were transferred to a nitrocellulose membrane and the signal intensity was determined. As a control, no significant binding was found for a PS/DNA ASO. The specific binding of protein-bound ASO to the nitrocellulose membrane was confirmed using a double-filter binding assay for PS/cEt and PS/LNA ASOs. The unbound ASOs were attracted using a Hybond-N+Nylon membrane under the Hybond ECL nitrocellulose membrane.

B1: Isis 586184 (PS/LNA) (XNA)
DNA: CTGCTAGCCTCTGGATTTGA
modifications: 5-10-5 gapmer, LNA wings 1-5 and 16-20, 2'-deoxy gap, all C 5mC, full PS
How did the Kd turn out when B1 was run?
The Kd was 17.7 nM.
